Sequences and labels used below:
B1: anti-OX40 antibody 1514/1515 (antibody, V domains shown)
VH: EVQLLESGGGLVQPGGSLRLSCAASGFTFGYYYMSWVRQAPGKGLEWVSGISSYGSYTYYADSVKGRFTISRDNSKNTLYLQMNSLRAEDTAVYYCARSGYSNWANSFDYWGQGTLVTVSS
VL: DIQMTQSPSSLSASVGDRVTITCRASQSISSYLNWYQQKPGKAPKLLIYAASSLQSGVPSRFSGSGSGTDFTLTISSLQPEDFATYYCQQGDYTLFTFGQGTKLEIK
B2: anti-OX40 antibody 1482/1483 (antibody, V domains shown)
VH: EVQLLESGGGLVQPGGSLRLSCAASGFTFSSYAMSWVRQAPGKGLEWVSYISYYSGYTYYADSVKGRFTISRDNSKNTLYLQMNSLRAEDTAVYYCARGYGYLDYWGQGTLVTVSS
VL: DIQMTQSPSSLSASVGDRVTITCRASQSISSYLNWYQQKPGKAPKLLIYAASSLQSGVPSRFSGSGSGTDFTLTISSLQPEDFATYYCQQYGSLLTFGQGTKLEIK
B3: anti-OX40 antibody 1170/1171 (antibody, V domains shown)
VH: EVQLLESGGGLVQPGGSLRLSCAASGFTFGGYYMSWVRQAPGKGLEWVSYIPGSGGSTYYADSVKGRFTISRDNSKNTLYLQMNSLRAEDTAVYYCARYDYYWMDYWGQGTLVTVSS
VL: DIQMTQSPSSLSASVGDRVTITCRASQSISSYLNWYQQKPGKAPKLLIYAASSLQSGVPSRFSGSGSGTDFTLTISSLQPEDFATYYCQQGHGSYPHTFGQGTKLEIK
B4: anti-OX40 antibody 1524/1525 (antibody, V domains shown)
VH: EVQLLESGGGLVQPGGSLRLSCAASGFTFGSYYMGWVRQAPGKGLEWVSSIGSYYGYTYYADSVKGRFTISRDNSKNTLYLQMNSLRAEDTAVYYCARHDYGALDYWGQGTLVTVSS
VL: DIQMTQSPSSLSASVGDRVTITCRASQSISSYLNWYQQKPGKAPKLLIYAASSLQSGVPSRFSGSGSGTDFTLTISSLQPEDFATYYCQQYGPSGLFTFGQGTKLEIK
B5: anti-OX40 antibody 1526/1527 (antibody, V domains shown)
VH: EVQLLESGGGLVQPGGSLRLSCAASGFTFSGYSMYWVRQAPGKGLEWVSGIGYSGYGTYYADSVKGRFTISRDNSKNTLYLQMNSLRAEDTAVYYCARYYFHDYAAYSLDYWGQGTLVTVSS
VL: DIQMTQSPSSLSASVGDRVTITCRASQSISSYLNWYQQKPGKAPKLLIYAASSLQSGVPSRFSGSGSGTDFTLTISSLQPEDFATYYCQQYGSDSLLTFGQGTKLEIK
B6: anti-OX40 antibody 1166/1167 (antibody, V domains shown)
VH: EVQLLESGGGLVQPGGSLRLSCAASGFTFGGYYMSWVRQAPGKGLEWVSAISGSGGSTYYADSVKGRFTISRDNSKNTLYLQMNSLRAEDTAVYYCARYDYASMDYWGQGTLVTVSS
VL: DIQMTQSPSSLSASVGDRVTITCRASQSISSYLNWYQQKPGKAPKLLIYAASSLQSGVPSRFSGSGSGTDFTLTISSLQPEDFATYYCQQYYWYGLSTFGQGTKLEIK

This assay addresses chimeric OX40 construct 1549: Human OX40 with mouse domains 1A and 4B and region non-annotated extracellular region (aa 30-65 and aa 127-214) (human; mouse) (UniProt P47741). The experiment in a line: flow cytometry, transfected 293-F cells. A general note: A flow cytometer gives signals particle by particle.
Molecule B1 gave a relative MFI compared to isotype control of 10.6.

B2: the relative MFI compared to isotype control was 8.7.

B3 yielded a relative MFI compared to isotype control of 12.1.

B4: the relative MFI compared to isotype control stood at 11.2.

B5 registered a relative MFI compared to isotype control of 8.5.

In turn, B6 registered a relative MFI compared to isotype control of 11.3.

Values taken from patent US20200048358A1.
